# Data from paper PMC5065627, “LWD–TCP complex activates the morning gene CCA1 in Arabidopsis”.
# B1: mTBS 50-bp CCA1 promoter competitor (dsDNA)
# DNA 1: GAGATTAACGATCTTAAGTATTGAAACATAGATCAAGATATTATAACGAA
# DNA 2: TTCGTTATAATATCTTGATCTATGTTTCAATACTTAAGATCGTTAATCTC
# Legend:
# [1] = molecular target: GST-TCP22 (Arabidopsis thaliana, UniProt Q9C7G4 1-375); assay: competition; 20x/40x unlabelled mTBS against labelled TBS; 35 mM KCl, 15 mM HEPES pH 7.5, 0.4 mM EDTA, 6% glycerol, 50 ng/ul poly(dI-dC), 0.05 pmol probe, room temperature, 10 min; settings: protein: recombinant; tags: GST (N-terminal, pET42a); chain copies: 2; blunt
# [2] = molecular target: GST-TCP20 (Arabidopsis thaliana, UniProt Q9LSD5 1-314); assay: as above; settings: protein: recombinant; tags: GST (N-terminal, pET42a); chain copies: 2; blunt
# Chain of GST-TCP20 (Q9LSD5 whole entry): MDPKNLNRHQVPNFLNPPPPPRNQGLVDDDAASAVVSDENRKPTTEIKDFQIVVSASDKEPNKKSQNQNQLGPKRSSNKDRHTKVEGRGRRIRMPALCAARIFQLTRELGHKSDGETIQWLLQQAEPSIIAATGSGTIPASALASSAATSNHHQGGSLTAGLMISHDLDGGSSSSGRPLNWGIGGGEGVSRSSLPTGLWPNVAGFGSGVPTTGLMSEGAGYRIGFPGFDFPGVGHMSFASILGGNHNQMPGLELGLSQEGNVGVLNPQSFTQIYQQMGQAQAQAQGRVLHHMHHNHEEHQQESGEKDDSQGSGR
# Chain of GST-TCP22 (Q9C7G4 whole entry): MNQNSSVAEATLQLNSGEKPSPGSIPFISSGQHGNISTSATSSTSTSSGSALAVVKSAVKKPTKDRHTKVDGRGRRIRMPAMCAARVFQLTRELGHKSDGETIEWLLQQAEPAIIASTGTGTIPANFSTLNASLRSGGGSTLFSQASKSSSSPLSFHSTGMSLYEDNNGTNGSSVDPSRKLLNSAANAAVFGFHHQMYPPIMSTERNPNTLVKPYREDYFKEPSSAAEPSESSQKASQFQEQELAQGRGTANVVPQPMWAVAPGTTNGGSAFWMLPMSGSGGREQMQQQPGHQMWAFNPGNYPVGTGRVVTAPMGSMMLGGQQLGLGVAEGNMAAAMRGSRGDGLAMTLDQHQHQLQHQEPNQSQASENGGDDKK
binder,measurement,setting,value
B1,binding result,[1],no binding
same,binding result,[2],no binding
